Results taken from the supplement of paper PMC12764529.
± gives the half width of the 95% confidence interval.

Key:
[1] = folding stability dG unfold from trypsin proteolysis; higher = more stable
In short: (§1)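 Designed mini-proteins with no cysteine and under 80 residues were kept only if AlphaFold2 dimer inter-PAE was above 15. In a PA-tagged cDNA display construct, they were digested with trypsin and chymotrypsin and then sequenced. K50 was inferred by Bayesian fitting of counts, and unfolding free energy was derived per protease or combined against a sequence-predicted unfolded-state K50 and a shared folded-state K50.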

[2] = folding stability dG unfold from chymotrypsin proteolysis; higher = more stable
In short: as §1

[3] = folding stability dG unfold (combined trypsin and chymotrypsin); higher = more stable
In short: as §1

Sequence	folding stability dG unfold [1] [kcal/mol]	folding stability dG unfold [2] [kcal/mol]	folding stability dG unfold [3] [kcal/mol]
SAGSMRITVEITFTSPEGVVKTKTVEVDLSSGSIDLSPEVIEAAKKELGLPPNVTVTLTVVEERPELESAGG [r19_287_JUSTAS]	4.06 ± 0.22	3.37 ± 0.11	3.69 ± 0.11
SAGSMTLESEDPSSGLRVTVTVEREPFLLPDGTRVLRRTVTTTVTTPDGEVLESEDVEVVAVLPPDAPLSAG [r5_871_JUSTAS]	2.4 ± 0.085	2.43 ± 0.04	2.46 ± 0.077
SAGSMTPEEIRERIEALAEEVGEPPVRVLLKGPSGPLYELDVRFTPEHLEEARRALGVDVVEVEPVPESAGG [r19_50_JUSTAS]	0.297 ± 0.068	-0.512 ± 0.32	-0.00549 ± 0.17
SAGSMVEERVRELLRELDPERPWEIERLPDGTIVARDPETGRWYIFKVEPDGTVTLERVLSLEEYERLSSAG [r5_852_JUSTAS]	3.37 ± 0.075	4.78 ± 0.076	4.42 ± 0.11
SAGSNKPIKLKAIIEKPKEKKEIEIEIDPNESIESALKKILEKLEPEWKIVIELPNGIKIEFPPSKEMYSAG [r5_77_TrMRF]	1.37 ± 0.083	0.0227 ± 0.18	0.91 ± 0.15
SAGSNTIWYPFPLKEIKEAISSGQSMEEIADELSERHGEEVPIEYPNMKIRIYVPEPGPLYVRIEMTPDSAG [r5_343_TrROS]	0.519 ± 0.2	0.907 ± 0.098	0.734 ± 0.14
SAGSPIEELAKKIAEPKYKEEKKPNLTIKVEIEVTVTTSVPVKLPNGEPAYKTTEVKIKVKLTINIPEGSAG [r5_297_JUSTAS]	3 ± 0.16	3.63 ± 0.48	3.39 ± 0.46
SAGSPSMVVTVRLTVTTTDPVTGTTTTTTLDIPVSPASLSTPPAQVAAALTAAAPATTIDVTVDSVLLSAGG [r19_189_JUSTAS]	1.794 ± 0.017	1.06 ± 0.06	1.51 ± 0.037
SAGSPVLATLRTYDPVAKKWTESVYPVSDPEALIAEVAAELGVEVEVDPATGVATAPLPDGRLVVVTVVSAG [r5_937_JUSTAS]	1.2 ± 0.036	1.56 ± 0.014	1.45 ± 0.051
SAGSPVTVPLTLTLTYTVNNPEGPEVLKTETIPLPLVFSPEELDDEETKALLQALVDALPDDVSEVVLESAG [r5_849_JUSTAS]	1.32 ± 0.02	1.43 ± 0.079	1.38 ± 0.046
SAGSSLPPSLSKEEIVAALKSQGYTSVKEEKLPDPNKSRMVFTHPNSVVTVEFFPNSVTVTTVPLSVPSSAG [r5_899_JUSTAS]	0.0126 ± 0.28	1.32 ± 0.16	0.968 ± 0.23
SAGSSMSSTVRVEVTLTNPVTEVSPDGKTYTTPGDTVAVPVLINVSTTTYYNSSNPSDVVTETTTTVALSAG [r14_274_JUSTAS]	1.07 ± 0.026	1.22 ± 0.19	1.18 ± 0.09
SAGSSPSLVLKVEIPVEIKEKRKFLLPNGETKTELTTRTITHTIVVEAGTDPAKLEEALALAEEIKEKKSAG [r14_830_JUSTAS]	-0.85 ± 0.57	0.00535 ± 0.31	-0.276 ± 0.25
SAGSSVSVSYDPNNPDKMTITITDPANGTQVSAVTAPVYKRPDGTIVVPLTITFPASGKVTTKTFTIPASAG [r5_610_JUSTAS]	1.22 ± 0.019	1.13 ± 0.09	1.22 ± 0.059
SAGSTAELVGHPDGVELRTELRGEELVFVLPAPKDVLVVAYDPATGALVLGVPVGDRVLVLVRPPPHPSAGG [r19_384_TrMRF]	2.54 ± 0.079	3.88 ± 0.099	3.53 ± 0.23
SAGSVTSVEVKEKGEVTVTTETLNIDGKPYTVVSTTTPLLDPEGNVTYTTTTTVYDPNGNKISTTPTSLSAG [r14_465_JUSTAS]	1.33 ± 0.033	2.14 ± 0.032	1.84 ± 0.051
SAGTADELVERAKEFARELAEEFGYKVDVDVKVQPTPDYYTIKVTVTFRNPGGMTWRFPFTITIPKEQFSAG [r5_609_TrROS]	3.45 ± 0.15	4.91 ± 0.14	4.29 ± 0.16
SAGTAEEAKELARFFARELAPRNGMDVEIPDIKVETDPENGWIRITVEITFRWPHGRKQKHPFTIQIPVSAG [r5_381_TrROS]	1.48 ± 0.047	1.25 ± 0.096	1.47 ± 0.063
SAGTEEELVERAKELARELAEELGVEAEAEVTVDPLPDVLVVNLTVRLRLPGGETVELPLTLTFPREFLSAG [r5_609_TrMRF]	2.71 ± 0.095	3.3 ± 0.035	3.08 ± 0.05
SAGTIIIPMKEIREELGYPPGSPPSQMRDRIRDLIRRLYPRGIRPTDIDIESNGDNWYITVDIKLPPGASAG [r14_158_TrROS]	2.26 ± 0.058	2.76 ± 0.053	2.63 ± 0.11
SAGTIKEIAETIAEFMRQNGMNIKVKLTEVDPNDPNYVKVRVEIEMWYYKKNGKPLGPMRHTMTIVIRSAGG [r19_418_TrROS]	2.84 ± 0.11	3.42 ± 0.13	2.92 ± 0.29

Sequence	folding stability dG unfold [1] [kcal/mol]	folding stability dG unfold [2] [kcal/mol]	folding stability dG unfold [3] [kcal/mol]
SAGTIRIVVPAEELSDEEIEALAEELRKLFPNAKIVRVERRVETLPDGRKRTYVVLEIHIELPPPPEEESAG [r5_835_TrROS_Hall]	4 ± 0.13	4.33 ± 0.12	4.26 ± 0.14
SAGTLEEALEDPSNETVEIEIEIPTGEYPLSDPEKVEELAEEKKKEIEKKLKEKGKNVKIIFKVSLKPLSAG [r5_408_JUSTAS]	0.366 ± 0.07	0.213 ± 0.15	0.447 ± 0.16
SAGTPEEVLQRAKELANRFQDRARDNGMDVKVDITQVEPNRIRINIEMRPPNGRRHRMPIEIELPKDDISAG [r5_994_TrROS]	1.27 ± 0.079	1.65 ± 0.036	1.43 ± 0.2
SAGTTSVVSTETTEFPDGTVTTTTTVLYLEPEGDGYVKVSETRVTTTYTIDPATGTVVTSTTTTTPLAGSAG [r5_828_JUSTAS]	1.79 ± 0.063	2.17 ± 0.063	1.99 ± 0.098
SAGTTVTLTDPVTGNVTTITKDPTDPNLWTVTLPDGSSVTAKRSEIAKKLGLSPEKLLSDYPVPSVSLTSAG [r5_156_JUSTAS]	1.94 ± 0.031	1.88 ± 0.024	1.94 ± 0.038
SAGTVKVSEDGDKLTVTMTAPPESPALVEALIQALKDAGLTIVTAEITTEPGEGDLVRTTITLTLKPPASAG [r5_739_JUSTAS]	2.33 ± 0.082	2.545 ± 0.024	2.46 ± 0.06
SAGVEIKTDPSKPVITITINYTSIEEAKEYIEKLVKEIGAKEVKIKEDPNSNKITATIDLKDIKKIEKLSAG [r5_598_JUSTAS]	-0.144 ± 0.52	1.46 ± 0.19	1.09 ± 0.41
SAGVIPESLIEKVETEEYPGGITRSTYTYPDGVTVTVEETKVPGTDGITRKITVYPPTNTTTETTVTDPSAG [r5_802_JUSTAS]	0.29 ± 0.098	0.348 ± 0.16	0.44 ± 0.12
SAGVKELAEEIADEFQKPGWQVEVEVDPGDGTITVQMRMPDYQYEIEIKITPENGKPQVDIKWRPPNDSAGG [r19_2_TrROS]	1.51 ± 0.16	1.49 ± 0.11	1.56 ± 0.31
SAGVPLSSVPESEVAEEVEFPKHGLKLLRDTATGKWYLQEGDTATVIPPEEAAKLLAEIKAPKPSPELLSAG [r14_516_JUSTAS]	1.33 ± 0.073	1.01 ± 0.083	1.2 ± 0.082
SAGVTITTNPESGTVTITIPFPDGSSATIELNYGGSLPTKPSITSFKVNPYDNGKPIIPADELVKKILSSAG [r5_842_TrMRF]	0.96 ± 0.056	1.57 ± 0.13	1.39 ± 0.35
SAGWFVRIEIEPPGEKREIMIPFSWDEARELLKDLGLEVEVDPESPTFEFKLPNYQIKVEFMPIPPGQMSAG [r5_248_TrROS]	2.34 ± 0.12	3.6 ± 0.049	3.21 ± 0.12
SAGWHEIEIEIMIPFPKENAEELAKEIAEEIARMHGFKITNIEVQVYPTDGEYYVMIPVKIRIPPPNDTSAG [r14_219_TrROS]	2.81 ± 0.061	3.15 ± 0.056	3.05 ± 0.11
SAGWRMTIWVQYELPPGMPPERAKEAVRDIIRDIMRRFGLPMPPGMKIDIEPVEPSNDYVYYKVTIEFPSAG [r14_735_TrROS]	4.37 ± 0.26	5.52 ± 0.15	5.22 ± 0.33
SAGYEIVKEIAEELGFPVEIDRIEYDPDHGTIKFTARMRPKDGKKYRVQIMIHVPPENGNVDIELEYVPSAG [r5_929_TrROS]	2.09 ± 0.074	2.6 ± 0.16	2.56 ± 0.2
SAGYFIMVKFEFPDGGPQEFMIWIPPDENPEKLTKEEAKEVAKSIANSNQDQGGFEVKDVEIMPPDDMSAGG [r19_27_TrROS]	0.611 ± 0.1	2.03 ± 0.088	1.58 ± 0.15
SAGYIRIEKDNDYYKIEFLFPPNDPSLIENLVEAIRQKGWKVKDVEVEVEPNKDGMYRVEIDFKIKPPDSAG [r5_739_TrROS]	2.53 ± 0.12	3.31 ± 0.099	2.88 ± 0.17
SAGYVEPYEDGMVKIDSTFFLNDWVFKVDWWIMPNGNIMISIEPIEPIPPPPPVPIDADDPEQKEEAQQSAG [r5_715_TrROS]	1.69 ± 0.18	2.69 ± 0.069	2.41 ± 0.23
SAIKGMPLEELAKHIENEMRKMHPNVKIKVEIVDVPPDYLVIEVEITVRHPNPGGQQVEFPMTIVIDLDSAG [r14_187_TrROS]	1.81 ± 0.21	1.5 ± 0.17	1.81 ± 0.21
SAISPTERVEATDYKSPNGAVGSTTTFPDPEGSTVSIVREGSTWRLVTVNPDGSVSEREVSPEEAAALLASA [r9_1144_JUSTAS]	1.89 ± 0.04	1.71 ± 0.065	1.86 ± 0.067
SAKASELLKKLPFEAEIEEGEEFVKIKLKNPFLKNPNVTFEFEIPTKKGKPIKVKVTLTKNGAEKIEPSSAG [r14_401_TrMRF]	2.57 ± 0.14	2.18 ± 0.078	2.25 ± 0.34
